Data taken from paper PMC12416549 (2024).
Substitutions are numbered along the chain they refer to. Names may count otherwise. Each block holds one binder with its values, some of them ahead of it.

Biological target: T1, TNFR1 (Homo sapiens, UniProt P19438)
T1 chain: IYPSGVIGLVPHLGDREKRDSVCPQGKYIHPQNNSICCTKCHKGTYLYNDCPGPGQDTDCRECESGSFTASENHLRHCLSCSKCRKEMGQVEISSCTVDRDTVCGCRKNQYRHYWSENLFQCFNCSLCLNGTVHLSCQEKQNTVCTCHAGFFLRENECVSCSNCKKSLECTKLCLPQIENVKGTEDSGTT
Test: yeast display SC50

B1: K88Y (designed binder)
chain: SMEEEVEKAAKEYEKKKKEAIEKHLEKLKAKDKEAAERFLKELEEAAKEYAKDEAKTMSEEEAKRRAKKYKEKVLLSELSEEEQKEIYEAEEKLVRTILKYVEEAAK
apparent Kd (screen): 0.49 nM

B3: E78L (designed binder)
chain: B1 chain with E78L, Y88K
apparent Kd (screen): 0.79 nM

B6: K69L (designed binder)
chain: B1 chain with K69L, Y88K
apparent Kd (screen): 0.446 nM

B7: K88R (designed binder)
chain: B1 chain with Y88R
apparent Kd (screen): 0.49 nM

B10: E34V (designed binder)
chain: B1 chain with E34V, Y88K
apparent Kd (screen): 0.446 nM

B11: R38E (designed binder)
chain: B1 chain with R38E, Y88K
apparent Kd (screen): 2.73 nM

B12: R65L (designed binder)
chain: B1 chain with R65L, Y88K
apparent Kd (screen): 1.05 nM

B13: E62P (designed binder)
chain: B1 chain with E62P, Y88K
apparent Kd (screen): 15.2 nM

B15: E34H (designed binder)
chain: B1 chain with E34H, Y88K
apparent Kd (screen): 0.446 nM

B16: L25E (designed binder)
chain: B1 chain with L25E, Y88K
apparent Kd (screen): 2.73 nM

B20: L99N (designed binder)
chain: B1 chain with Y88K, L99N
apparent Kd (screen): 6.43 nM

B21: A46Y (designed binder)
chain: B1 chain with A46Y, Y88K
apparent Kd (screen): 0.49 nM

B26: S77R (designed binder)
chain: B1 chain with S77R, Y88K
apparent Kd (screen): 1.86 nM

B27: Q84E (designed binder)
chain: B1 chain with Q84E, Y88K
apparent Kd (screen): 4.39 nM

B28: R96P (designed binder)
chain: B1 chain with Y88K, R96P
apparent Kd (screen): 1.27 nM

B29: E86Q (designed binder)
chain: B1 chain with E86Q, Y88K
apparent Kd (screen): 0.446 nM

B31: D53K (designed binder)
chain: B1 chain with D53K, Y88K
apparent Kd (screen): 0.208 nM

B32: E22V (designed binder)
chain: B1 chain with E22V, Y88K
apparent Kd (screen): 1.16 nM

B33: A47E (designed binder)
chain: B1 chain with A47E, Y88K
apparent Kd (screen): 0.0802 nM

B34: E78S (designed binder)
chain: B1 chain with E78S, Y88K
apparent Kd (screen): 1.54 nM

B35: K69Q (designed binder)
chain: B1 chain with K69Q, Y88K
apparent Kd (screen): 0.446 nM

B41: E3R (designed binder)
chain: B1 chain with E3R, Y88K
apparent Kd (screen): 1.4 nM

B42: E104M (designed binder)
chain: B1 chain with Y88K, E104M
apparent Kd (screen): 0.869 nM

B43: K33Y (designed binder)
chain: B1 chain with K33Y, Y88K
apparent Kd (screen): 0.593 nM

B46: K17Q (designed binder)
chain: B1 chain with K17Q, Y88K
apparent Kd (screen): 1.16 nM

B47: K18N (designed binder)
chain: B1 chain with K18N, Y88K
apparent Kd (screen): 0.539 nM

B49: K27D (designed binder)
chain: B1 chain with K27D, Y88K
apparent Kd (screen): 0.956 nM

B50: K85Q (designed binder)
chain: B1 chain with K85Q, Y88K
apparent Kd (screen): 0.539 nM

B51: Y70T (designed binder)
chain: B1 chain with Y70T, Y88K
apparent Kd (screen): 7.07 nM

B52: A10E (designed binder)
chain: B1 chain with A10E, Y88K
apparent Kd (screen): 1.27 nM

B53: K8P (designed binder)
chain: B1 chain with K8P, Y88K
apparent Kd (screen): 3.63 nM

B55: L76S (designed binder)
chain: B1 chain with L76S, Y88K
apparent Kd (screen): 4.83 nM

B56: K31I (designed binder)
chain: B1 chain with K31I, Y88K
apparent Kd (screen): 0.869 nM

B57: L28F (designed binder)
chain: B1 chain with L28F, Y88K
apparent Kd (screen): 0.446 nM

Further lines, results first:

apparent Kd (screen): 1.69 nM
B2: A36T (designed binder)
chain: B1 chain with A36T, Y88K

apparent Kd (screen): 0.446 nM
B4: E37G (designed binder)
chain: B1 chain with E37G, Y88K

apparent Kd (screen): 0.869 nM
B5: K23V (designed binder)
chain: B1 chain with K23V, Y88K

apparent Kd (screen): 0.539 nM
B8: T97Y (designed binder)
chain: B1 chain with Y88K, T97Y

apparent Kd (screen): 1.4 nM
B9: E89G (designed binder)
chain: B1 chain with Y88K, E89G

apparent Kd (screen): 0.49 nM
B14: E89S (designed binder)
chain: B1 chain with Y88K, E89S

apparent Kd (screen): 1.4 nM
B17: A90I (designed binder)
chain: B1 chain with Y88K, A90I

apparent Kd (screen): 0.869 nM
B18: E19I (designed binder)
chain: B1 chain with E19I, Y88K

apparent Kd (screen): 0.869 nM
B19: L43K (designed binder)
chain: B1 chain with L43K, Y88K

apparent Kd (screen): 0.539 nM
B22: L28E (designed binder)
chain: B1 chain with L28E, Y88K

apparent Kd (screen): 11.4 nM
B23: K69W (designed binder)
chain: B1 chain with K69W, Y88K

apparent Kd (screen): 0.539 nM
B24: E103V (designed binder)
chain: B1 chain with Y88K, E103V

apparent Kd (screen): 0.446 nM
B25: E34M (designed binder)
chain: B1 chain with E34M, Y88K

apparent Kd (screen): 0.446 nM
B30: Y101G (designed binder)
chain: B1 chain with Y88K, Y101G

apparent Kd (screen): 5.84 nM
B36: Q84F (designed binder)
chain: B1 chain with Q84F, Y88K

apparent Kd (screen): 6.43 nM
B37: Y70M (designed binder)
chain: B1 chain with Y70M, Y88K

apparent Kd (screen): 0.653 nM
B38: K100S (designed binder)
chain: B1 chain with Y88K, K100S

apparent Kd (screen): 0.446 nM
B39: Y13N (designed binder)
chain: B1 chain with Y13N, Y88K

apparent Kd (screen): 0.79 nM
B40: K18R (designed binder)
chain: B1 chain with K18R, Y88K

apparent Kd (screen): 3.3 nM
B44: F39N (designed binder)
chain: B1 chain with F39N, Y88K

apparent Kd (screen): 0.539 nM
B45: S1S (designed binder)
chain: B1 chain with Y88K

apparent Kd (screen): 2.73 nM
B48: E3S (designed binder)
chain: B1 chain with E3S, Y88K

apparent Kd (screen): 1.4 nM
B54: R38I (designed binder)
chain: B1 chain with R38I, Y88K

apparent Kd (screen): 1.05 nM
B58: K107G (designed binder)
chain: B1 chain with Y88K, K107G

apparent Kd (screen): 1.27 nM
B59: K68M (designed binder)
chain: B1 chain with K68M, Y88K
